Results on one substance are retold here after paper PMC11621822.

This experiment has as its target recombinant heat shock protein 70 cognate 3 (Hsc70-3), protein encoded by AAEL017349 (Aedes aegypti). The experiment can be described thus: ELISA.

pEC50: −log10 of the molar value.

Turning to “recombinant E protein Receptor (EPrRec), protein encoded by AAEL011180 (natural protein)”, the pEC50 – broadly, the EC50 on a negative log10 scale, so that one unit is a factor of ten – is 7.15.
